pKd: −log10 of the molar value.
Assays:
κI O18/O8 Y87H (human) [1] = assay: NMR titration
κI O18/O8 Y87H (human) [2] = assay: AUC

κI O18/O8 Y87H (domain or fragment) was tested, and the pKd (κI O18/O8 Y87H (human) [1]) was 3.46 and the pKd (κI O18/O8 Y87H (human) [2]) was 3.38.
